In experiment [1] the target is T1, anti-gH antibody (anti-HCMV antibody).
T1 construct: Anti-HCMV monoclonal antibody with a human IgG Fc (detected with anti-human IgG Fc)
Briefly: Biacore.

Experiment [2] has the same target. Nature of the experiment: preliminary anti-HCMV human PK ELISA, anti-ID coat 1 ug/mL, anti-gH in 1% NHS, HRP-sheep anti-huIgG. As to the method: The assay was carried out as follows: microtiter ELISA plates were coated with anti-idiotypic monoclonal antibodies at 1 μg/mL in PBS overnight. Anti-CI and anti-gH were diluted in 1% NHS and added to the wells, being subsequently detected with 50 ng/mL (in-well concentration) of HRP-Sheep anti-huIgG.
On the technique in general: ELISA stands for enzyme-linked immunosorbent assay.

Experiment [3] has as its target T2, anti-Complex I antibody (anti-HCMV antibody).
T2 construct: also called anti-CI; anti-CI antibody
Nature of the experiment: Biacore. A general note: SPR reads the build-up and loss of mass on a sensor chip optically.

Experiment [4] has as its target T2, anti-Complex I antibody (anti-HCMV …). Nature of the experiment: anti-CI clinical PK ELISA; coat 4.25B10.15 0.5 ug/mL; 8G8 1 ug/mL; against unspiked human serum. As to the method:
(§1) The plates are washed three times with 400 μl per well per cycle of wash buffer. 200 μl per well of blocking buffer (PBS/0.5% BSA/0.05% polysorbate 20/0.05% ProClin 300, pH 7.4±0.1) is added, and the plates are incubated at room temperature with shaking for 1-3 hours. Standard curves are prepared with standard/sample diluent (assay diluent with 0.5% normal pooled human serum; assay diluent is composed of PBS/0.5% BSA/0.05% polysorbate-20/0.35 M NaCl/0.25% CHAPS/5mM EDTA/0.05% ProClin 300, pH 7.4±0.1). The plates are washed three times with 400 μl per well per cycle of wash buffer. Diluted standards, controls and samples are added to plates at 100 μl per well, in duplicate. The plates are incubated at room temperature with shaking for 2 hours +10 minutes. The plates arc washed four times with 400 μl per well per cycle of wash buffer. HRP conjugates diluted in conjugate buffer (PBS/0.5% BSA/0.05% polysorbate 20/0.05% ProClin 300, pH 7.4±0.1) are added at 100 μl per well. The plates are incubated at room temperature with shaking for 1 hour±5 minutes, following which the plates are washed four times with 400 μl per well per cycle of wash buffer. […] The plates are read using a 450 nm read wavelength and a 620 or 630 nm reference wavelength. […]

For experiment [5] the target is unchanged. Briefly: anti-CI clinical PK ELISA; coat 4.25B10.15 1 ug/mL; 8G8 8 ug/mL; against unspiked human serum. As to the method: as §1
The target is the same in experiment [6]. Nature of the experiment: anti-CI clinical PK ELISA; coat 4.25B10.15 1 ug/mL; 8G8 0.125 ug/mL; against unspiked human serum. As to the method: as §1
Experiment [7] shares this target. Nature of the experiment: anti-CI clinical PK ELISA; coat 4.25B10.15 1 ug/mL; 8G8 0.25 ug/mL; against unspiked human serum. As to the method:
as §1

Experiment [8] has the same target. Briefly: anti-CI clinical PK ELISA standard curve; anti-CI 5 ug/mL in 0.5% human serum pool; against background. As to the method:
(§2) Microtiter plates are coated overnight at 2-8° C. with 100 μl per well of 0.75 μg/ml anti-CI idiotypic antibody (in 0.05 M sodium carbonate buffer, pH 9.6±0.1). The plates are washed three times with 400 μl per well per cycle of wash buffer. 200 μl per well of blocking buffer (PBS/0.5% BSA/0.05% polysorbate 20/0.05% ProClin 300, pH 7.4±0.1) is added, and the plates are incubated at room temperature with shaking for 1-3 hours. Standard curves are prepared with standard/sample diluent (assay diluent with 0.5% normal pooled human serum; assay diluent is composed of PBS/0.5% BSA/0.05% polysorbate-20/0.35 M NaCl/0.25% CHAPS/5mM EDTA/0.05% ProClin 300, pH 7.4±0.1). The plates are washed three times with 400 μl per well per cycle of wash buffer. Diluted standards, controls and samples are added to plates at 100 μl per well, in duplicate. The plates are incubated at room temperature with shaking for 2 hours +10 minutes. The plates arc washed four times with 400 μl per well per cycle of wash buffer. HRP conjugates diluted in conjugate buffer (PBS/0.5% BSA/0.05% polysorbate 20/0.05% ProClin 300, pH 7.4±0.1) are added at 100 μl per well. […] The plates are read using a 450 nm read wavelength and a 620 or 630 nm reference wavelength. […]

Experiment [9] has the same target. Nature of the experiment: anti-CI clinical PK ELISA; coat 4.25B10.15 0.75 ug/mL; 8G8 1 ug/mL; against unspiked human serum. As to the method:
as §2

Experiment [10] shares this target. Briefly: anti-CI clinical PK ELISA; coat 4.25B10.15 0.5 ug/mL; 8G8 4 ug/mL; against unspiked human serum. As to the method: as §1
Experiment [11] has the same target. Briefly: anti-CI clinical PK ELISA; coat 4.25B10.15 0.75 ug/mL; 8G8 4 ug/mL; against unspiked human serum. As to the method:
as §2

Experiment [12] has the same target. Nature of the experiment: anti-CI clinical PK ELISA; coat 4.25B10.15 1 ug/mL; 8G8 4 ug/mL; against unspiked human serum. As to the method: as §1
For experiment [13] the target is unchanged. Briefly: anti-CI clinical PK ELISA standard curve; anti-CI 20 ug/mL in 0.5% human serum pool; against background. As to the method:
as §2

Experiment [14] shares this target. Nature of the experiment: anti-CI clinical PK ELISA; coat 4.25B10.15 0.5 ug/mL; 8G8 0.5 ug/mL; against unspiked human serum. As to the method:
as §1

Experiment [15] has the same target. Nature of the experiment: anti-CI clinical PK ELISA; coat 4.25B10.15 0.75 ug/mL; 8G8 0.25 ug/mL; against unspiked human serum. As to the method:
as §2

Experiment [16] shares this target. Briefly: anti-CI clinical PK ELISA standard curve; anti-CI 0.313 ug/mL in 0.5% human serum pool; against background. As to the method:
as §2

For experiment [17] the target is unchanged. Briefly: anti-CI clinical PK ELISA; coat 4.25B10.15 0.75 ug/mL; 8G8 8 ug/mL; against unspiked human serum. As to the method:
as §2

Experiment [18] shares this target. Briefly: anti-CI clinical PK ELISA; coat 4.25B10.15 1 ug/mL; 8G8 1 ug/mL; against unspiked human serum. As to the method:
as §1

The target is the same in experiment [19]. Briefly: anti-CI clinical PK ELISA; coat 4.25B10.15 0.75 ug/mL; 8G8 16 ug/mL; against unspiked human serum. As to the method:
as §2

For experiment [20] the target is unchanged. Briefly: anti-CI clinical PK ELISA; coat 4.25B10.15 0.5 ug/mL; 8G8 0.125 ug/mL; against unspiked human serum. As to the method:
as §1

The target is the same in experiment [21]. Briefly: anti-CI clinical PK ELISA; coat 4.25B10.15 0.75 ug/mL; 8G8 0.125 ug/mL; against unspiked human serum. As to the method: as §2
The target is the same in experiment [22]. Briefly: anti-CI clinical PK ELISA; coat 4.25B10.15 0.5 ug/mL; 8G8 16 ug/mL; against unspiked human serum. As to the method:
as §1

Experiment [23] has the same target. Briefly: anti-CI clinical PK ELISA standard curve; anti-CI 0.625 ug/mL in 0.5% human serum pool; against background. As to the method: as §2
Experiment [24] shares this target. Briefly: anti-CI clinical PK ELISA; coat 4.25B10.15 0.5 ug/mL; 8G8 0.25 ug/mL; against unspiked human serum. As to the method: as §1
For experiment [25] the target is unchanged. Briefly: anti-CI clinical PK ELISA; coat 4.25B10.15 1 ug/mL; 8G8 16 ug/mL; against unspiked human serum. As to the method:
as §1

The target is the same in experiment [26]. Nature of the experiment: anti-CI clinical PK ELISA; coat 4.25B10.15 0.5 ug/mL; 8G8 8 ug/mL; against unspiked human serum. As to the method:
as §1

Experiment [27] has the same target. Briefly: anti-CI clinical PK ELISA standard curve; anti-CI 0.156 ug/mL in 0.5% human serum pool; against background. As to the method: as §2
Experiment [28] shares this target. Briefly: anti-CI clinical PK ELISA; coat 4.25B10.15 0.75 ug/mL; 8G8 0.5 ug/mL; against unspiked human serum. As to the method: as §2
Experiment [29] shares this target. Briefly: anti-CI clinical PK ELISA; coat 4.25B10.15 1 ug/mL; 8G8 0.5 ug/mL; against unspiked human serum. As to the method:
as §1

For experiment [30] the target is unchanged. Briefly: anti-CI clinical PK ELISA standard curve; anti-CI 1.25 ug/mL in 0.5% human serum pool; against background. As to the method: as §2
The target is the same in experiment [31]. Nature of the experiment: anti-CI clinical PK ELISA standard curve; anti-CI 10 ug/mL in 0.5% human serum pool; against background. As to the method:
as §2

For experiment [32] the target is unchanged. Briefly: anti-CI clinical PK ELISA standard curve; anti-CI 2.5 ug/mL in 0.5% human serum pool; against background. As to the method: as §2

Bounds are passed on as bounds.

T2 sequence (VH, as listed by the source, chain 1 of 2): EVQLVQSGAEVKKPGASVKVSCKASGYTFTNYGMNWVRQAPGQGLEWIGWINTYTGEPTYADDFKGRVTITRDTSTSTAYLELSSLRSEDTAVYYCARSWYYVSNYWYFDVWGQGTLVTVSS
T2 sequence (VL, as listed by the source, chain 2 of 2): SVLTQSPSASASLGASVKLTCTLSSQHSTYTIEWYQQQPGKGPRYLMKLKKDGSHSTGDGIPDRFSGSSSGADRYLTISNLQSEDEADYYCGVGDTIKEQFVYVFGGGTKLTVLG
T1 sequence (VH, as listed by the source, chain 1 of 2): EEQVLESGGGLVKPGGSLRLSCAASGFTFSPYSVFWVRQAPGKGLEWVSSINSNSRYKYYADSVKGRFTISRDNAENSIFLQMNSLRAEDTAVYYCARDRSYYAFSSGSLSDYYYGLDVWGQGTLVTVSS
T1 sequence (VL, as listed by the source, chain 2 of 2): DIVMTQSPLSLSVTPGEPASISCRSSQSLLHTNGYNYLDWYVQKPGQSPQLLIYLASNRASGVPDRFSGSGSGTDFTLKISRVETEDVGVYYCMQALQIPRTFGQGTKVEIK

B1: murine mAb 1.9E1.1 (antibody, IgG1, V domains shown)
VH: QVQLQQSGAELVMPGASVKMSCKASGYTFTDYWMYWVNQRPGQGLEWIGAIDTSDSYTTYNQNFKGKATLTVDESSSTAYMQLNSLTSEDSAVYYCARSGFPLFYYPMDYWGQGTSVTVSS
VL: QAVVTQESALTTSPGETVTLTCRSSTGAVTTSNYANWVQEKPDHLFTGLIGGTVNRAPGVPARFSGSLIGDKAALTITGAQTEDEAVYFCALWYSNHLVFGGGTKLTVL
notes: Used biotin-conjugated in the clinical PK ELISA and the LC-MS/MS capture; also called anti-gH idiotypic antibody; anti-gH anti-ID mAb
As to B1, the equilibrium dissociation constant (Kd) (in general, the equilibrium constant for the complex coming apart) in experiment [1] stood at 0.1 nM. Moreover, the “fold of OD in the presence of anti-gH over OD in the absence of anti-gH” value in [2] is > 2 fold.

B2: murine mAb 4.25B10.15 (antibody, IgG1, V domains shown)
VH: QVQLQQSGAELVRPGTSVKVSCKASGYAFTNYLIEWVKQRPGQGLEWIGVINPGSGGTNYNEKFEAKATLTADKSSSTAYMQLSSLTSDDSAVYFCARHGSSYWYFDVWGAGTTVTVSS
VL: DIVMTQSPATLSVTPGDRVSLSCRASQSISDYLHWYQQKSHESPRLLIKYASQSISGIPSRFSGSGSGSDFTLSINSVEPEDVGVYYCQNGHSFPYTFGGGTKLEIK
notes: also called anti-CI idiotypic antibody; anti-CI anti-ID mAb
In turn, B2 returned a Kd in experiment [3] of 4.7 nM. Also, the Signal/bkgd ratio in [4] is 4.3 ratio; in experiment [5], 13 ratio; in [6] it was 1.4 ratio; in experiment [7], 1.9 ratio; in experiment [9] it was 5.3 ratio; in experiment [10], 10.4 ratio. For the same molecule, the Signal/bkgd ratio in [11] was 13.3 ratio; in [12] it was 10 ratio; in [14] it was 2.7 ratio; in experiment [15], 2.1 ratio; in [17], 16.5 ratio; in experiment [18] it was 4.4 ratio. In addition, the Signal/bkgd ratio stood at 19.1 ratio in experiment [19]; 1.4 ratio in [20]; 1.5 ratio in experiment [21]; 14.7 ratio in [22]; 1.8 ratio in [24]; 13.8 ratio in experiment [25]. Also, the Signal/bkgd ratio came to 12.3 ratio in experiment [26], 3.2 ratio in experiment [28] and 2.7 ratio in experiment [29]. The S/B ratio in experiment [8] stood at 13.6 ratio; in experiment [13], 22.3 ratio; in experiment [16], 2 ratio; in experiment [23], 3 ratio; in [27] it was 1.5 ratio; in experiment [30] it was 4.9 ratio. Moreover, the S/B ratio in experiment [31] came to 19.6 ratio; in experiment [32], 8.4 ratio.
